Measured values reported in publication PMC9072662.

Molecular target: Tetrameric photosystem I from Chroococcidiopsis sp. TS-821 isolated with DDM (Chroococcidiopsis sp. TS-821 (endogenous in TS-821 thylakoids))

- stoichiometry N: 4
Substance: Tetrameric photosystem I from Chroococcidiopsis sp. TS-821 isolated with DDM (complex)
